Assay results taken from patent US20260201058A1 (SICHUAN HUIYU PHARMACEUTICAL, published 2026).
Numbering of substitutions follows the chain as printed.

B1: 3C6 hu-5 (Fc fusion)
chain: EVQLVESGGGLIQPGGSLRLSCAASGNIGSIRHMGWHRQAPGKERELVSTITTVGTTYYANFVKGRFTISRDNSKNTLYLQMNSLRAEDTAVYYCRATAHPTDYWGQGTLVTVSSGGGGSGGGGSDKTHTCPPCPAPEAAGAPSVFLFPPKPKDTLMISRTPEVTCVVVDVSHEDPEVKFNWYVDGVEVHNAKTKPREEQYNSTYRVVSVLTVLHQDWLNGKEYKCAVSNKALPAPIEKTISKAKGQPREPQVYTLPPSRDELTKNQVSLTCLVKGFYPSDIAVEWESNGQPENNYKTTPPVLDSDGSFFLYSKLTVDKSRWQQGNVFSCSVMHEALHNHYTQKSLSLSP
notes: Humanized VHH-Fc antibody: VHH, linker, human IgG1 Fc
B2: 3C6 hu-1 (Fc fusion)
chain: B1 chain with H37V, E44G, R45L, L47W
notes: as for B1
B3: 3C6 hu-6 (Fc fusion)
chain: B1 chain with S49A
notes: as for B1
B4: 3C6 hu-4 (Fc fusion)
chain: B1 chain with E44G
notes: as for B1
B5: 3C6 hu-2 (Fc fusion)
chain: B1 chain with E44G, R45L
notes: as for B1
B6: 3C6 hu-3 (Fc fusion)
chain: B1 chain with R45L
notes: as for B1
B7: 3C6 hu-7 (Fc fusion)
chain: B1 chain with L47W, S49A
notes: as for B1
B8: 3C6 hu-8 (Fc fusion)
chain: B1 chain with H37V, S49A
notes: as for B1
B9: alpaca nanobody 3C6 (VHH)
VHH: EVQLVESGGGLVQAGESLRLSCAVSGNIGSIRHMGWHRQDPGKERELVATITTVGTTYYANFVKGRFTISRDNAKNTVYLQMNSLKPEDTGVYYCRATAHPTDYWGQGTQVTVSS
notes: also called anti-MSLN nanobody 3C6
B10: 4A7 hu-5 (Fc fusion)
chain: EVQLLESGGGLVQPGGSLRLSCAASGRTFSTNVMGWFRQAPGKGLEFVSAISRAGSTYSADSVKGRFTISRDNSKNTLYLQMNSLRAEDTAVYYCAAGSSPTAIFGKSGMDYWGQGTQVTVSSGGGGSGGGGSDKTHTCPPCPAPEAAGAPSVFLFPPKPKDTLMISRTPEVTCVVVDVSHEDPEVKFNWYVDGVEVHNAKTKPREEQYNSTYRVVSVLTVLHQDWLNGKEYKCAVSNKALPAPIEKTISKAKGQPREPQVYTLPPSRDELTKNQVSLTCLVKGFYPSDIAVEWESNGQPENNYKTTPPVLDSDGSFFLYSKLTVDKSRWQQGNVFSCSVMHEALHNHYTQKSLSLSP
notes: Humanized VHH-Fc antibody
B11: 4A7 hu-13 (Fc fusion)
chain: B10 chain with T31S, N32Y
notes: Humanized VHH-Fc antibody
B12: 4A7 hu-16 (Fc fusion)
chain: B10 chain with T31S, N32Y, G44E, L45R
notes: Humanized VHH-Fc antibody
B13: 4A7 hu-14 (Fc fusion)
chain: B10 chain with P14A, T31S, N32Y
notes: Humanized VHH-Fc antibody
B14: 4A7 hu-7 (Fc fusion)
chain: B10 chain with L45R
notes: Humanized VHH-Fc antibody
B15: 4A7 hu-9 (Fc fusion)
chain: B10 chain with T31S, N32Y, G35S, F37V, F47W, S59Y
notes: Humanized VHH-Fc antibody
B16: 4A7 hu-8 (Fc fusion)
chain: B10 chain with G44E, L45R
notes: Humanized VHH-Fc antibody
B17: 4A7 hu-4 (Fc fusion)
chain: B10 chain with F37V
notes: Humanized VHH-Fc antibody
B18: 4A7 hu-6 (Fc fusion)
chain: B10 chain with P14A
notes: Humanized VHH-Fc antibody
B19: 4A7 hu-11 (Fc fusion)
chain: B10 chain with T31S, N32Y, F47W
notes: Humanized VHH-Fc antibody
B20: 4A7 hu-12 (Fc fusion)
chain: B10 chain with T31S, N32Y, F37V
notes: Humanized VHH-Fc antibody
B21: 4A7 hu-10 (Fc fusion)
chain: B10 chain with T31S, N32Y, F37V, F47W
notes: Humanized VHH-Fc antibody
B22: 4A7 hu-15 (Fc fusion)
chain: B10 chain with T31S, N32Y, L45R
notes: Humanized VHH-Fc antibody
B23: 4A7 hu-3 (Fc fusion)
chain: B10 chain with F47W
notes: Humanized VHH-Fc antibody
B24: 4A7 hu-2 (Fc fusion)
chain: B10 chain with F37V, F47W
notes: Humanized VHH-Fc antibody
B25: 4A7 hu-1 (Fc fusion)
chain: B10 chain with G35S, F37V, F47W, S59Y
notes: Humanized VHH-Fc antibody
B26: 7B11_huGS_HM1 (Fc fusion)
chain: EVQLVESGGGLVQPGGSLRLSCAASGGTFLTYGMGWFRQAPGKGLEFVAAINWSGSMTNYADSVKGRFTISRDNAKNTVYLQMNSLRAEDTAVYYCAAKTGAVAYIQKNEYDYWGQGTLVTVSSGGGGSGGGGSDKTHTCPPCPAPEAAGAPSVFLFPPKPKDTLMISRTPEVTCVVVDVSHEDPEVKFNWYVDGVEVHNAKTKPREEQYNSTYRVVSVLTVLHQDWLNGKEYKCAVSNKALPAPIEKTISKAKGQPREPQVYTLPPSRDELTKNQVSLTCLVKGFYPSDIAVEWESNGQPENNYKTTPPVLDSDGSFFLYSKLTVDKSRWQQGNVFSCSVMHEALHNHYTQKSLSLSP
notes: Humanized VHH-Fc antibody
B27: 7B11_huBSM_HM2 (Fc fusion)
chain: B26 chain with P14A, G44E, L45R, N84R, R87T, A88S
notes: Humanized VHH-Fc antibody
B28: 7B11_huGS1 (Fc fusion)
chain: B26 chain with F37V, F47W
notes: Humanized VHH-Fc antibody
B29: 7B11_huBSM_HM1 (Fc fusion)
chain: B26 chain with P14A, E46V, N84R, R87T, A88S, L119Q
notes: Humanized VHH-Fc antibody
B30: 7B11_huBSM1 (Fc fusion)
chain: B26 chain with P14A, G44E, L45R, E46V, N84R, R87T, A88S, L119Q
notes: Humanized VHH-Fc antibody

Target: T1, cynoMSLN-Fc (Kactus Biosystems, MSL-CM280) (cyno (monkey))
T1 construct: Bought protein; also called monkey MSLN
Assay: Carterra HC30M chip, antibody captured via anti-DYKDDDDK, antigen as analyte
Experimental: (§1) The anti-[…] antibody was bound to the HC30M chip via amino coupling, and then 2 μg/mL of MSLN single-domain antibody was captured. After the baseline was stabilized, gradient diluted huMSLN-Fc (Kactus Biosystems, MSL-HM280) and cynoMSLN-Fc (Kactus Biosystems, MSL-CM280) (starting from 100 nM, gradient dilution) were flowed through the chip from low to high concentrations, respectively, with a binding time of 8 minutes and a dissociation time of 20 minutes. Kinetic constants were obtained by fitting with Carteria software.

| Kd [nM] | koff [s⁻¹] | kon [M⁻¹ s⁻¹] | Binder |
| --- | --- | --- | --- |
| 1.66 | 0.000914 | 551000 | B1 |
| 3.67 | 0.00151 | 412000 | B2 |
| 1.78 | 0.00115 | 644000 | B3 |
| 5.58 | 0.00285 | 511000 | B4 |
| 11.4 | 0.00426 | 374000 | B5 |
| 2.74 | 0.00125 | 455000 | B6 |
| 4.79 | 0.00244 | 510000 | B7 |
| 17.3 | 0.0165 | 956000 | B8 |
| 1.04 | 4.69e-05 | 45300 | B9 |

Target: T2, hFc-tagged human MSLN recombinant protein (huMSLN-hFc, Kactus Biosystems, MSL-HM280) (human, UniProt Q13421 296-580)
T2 construct: Bought protein; also called huMSLN-Fc; human MSLN-Fc
T2 sequence (Q13421 other isoform, or with tags, fused parts or gaps): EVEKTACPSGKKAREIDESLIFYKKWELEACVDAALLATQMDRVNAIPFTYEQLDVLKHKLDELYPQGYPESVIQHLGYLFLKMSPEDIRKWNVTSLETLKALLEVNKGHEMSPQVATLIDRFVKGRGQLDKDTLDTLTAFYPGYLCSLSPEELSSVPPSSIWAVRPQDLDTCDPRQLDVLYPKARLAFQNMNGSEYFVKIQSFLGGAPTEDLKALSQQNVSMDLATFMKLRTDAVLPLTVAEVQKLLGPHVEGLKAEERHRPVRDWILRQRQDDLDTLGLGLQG
Assay: as above
Experimental: as §1

| Kd [nM] | koff [s⁻¹] | kon [M⁻¹ s⁻¹] | Binder |
| --- | --- | --- | --- |
| 2.26 | 0.00175 | 772000 | B1 |
| 2.69 | 0.00187 | 695000 | B2 |
| 2.25 | 0.00185 | 820000 | B3 |
| 4.89 | 0.00471 | 963000 | B4 |
| 13.5 | 0.00732 | 540000 | B5 |
| 3.56 | 0.00218 | 611000 | B6 |
| 4.94 | 0.00277 | 560000 | B7 |
| 12 | 0.0315 | 2.63e+06 | B8 |
| 5.66 | 0.000304 | 53600 | B9 |

Target: T3, human PD-L1 protein (ACRO, PD1-H5258) (human, UniProt Q9NZQ7 19-238)
T3 construct: Bought protein; also called Human PDL1-Fc
T3 sequence (Q9NZQ7 19-238): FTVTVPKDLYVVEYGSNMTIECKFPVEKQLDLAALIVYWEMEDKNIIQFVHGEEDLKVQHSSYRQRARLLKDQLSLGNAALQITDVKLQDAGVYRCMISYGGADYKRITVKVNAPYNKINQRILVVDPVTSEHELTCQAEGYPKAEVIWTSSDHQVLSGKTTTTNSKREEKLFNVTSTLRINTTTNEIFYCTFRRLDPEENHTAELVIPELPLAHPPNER
Assay: Carterra HC30M chip, antibody captured via anti-DYKDDDDK, PD-L1 as analyte
Experimental: (§2) The anti-[…] antibody was bound to the HC30M chip via amino coupling, then 2 μg/mL of humanized PD-L1 single-domain antibody was captured. […] Kinetic constants were obtained by fitting with Carteria software.

| Kd [nM] | Binder |
| --- | --- |
| 141 | B10 |
| 58.7 | B11 |
| 45.1 | B12 |
| 60.9 | B13 |
| 127 | B14 |
| 652 | B15 |
| 92.7 | B16 |
| 175 | B17 |
| 136 | B18 |
| 796 | B19 |
| 79 | B20 |
| 805 | B21 |
| 54.9 | B22 |
| 1630 | B23 |

Target: T4, monkey PD-L1 protein (Kactus Biosystems, PDL-CM210) (monkey)
T4 construct: Bought protein; also called Monkey PDL1-Fc
Assay: as above
Experimental: as §2

| Kd [nM] | Binder |
| --- | --- |
| 94.3 | B10 |
| 72.8 | B11 |
| 367 | B24 |
| 75.3 | B12 |
| 76.5 | B13 |
| 61.7 | B14 |
| 609 | B15 |
| 57.5 | B16 |
| 112 | B17 |
| 99 | B18 |
| 828 | B19 |
| 94.5 | B20 |
| 622 | B21 |
| 1320 | B25 |
| 60.7 | B22 |
| 599 | B23 |

Target: T5, mouse PD-L1 protein (ACRO, PD1-M5251) (mouse, UniProt Q9EP73 19-238)
T5 construct: Bought protein; also called Mouse PDL1-Fc
T5 sequence (Q9EP73 19-238): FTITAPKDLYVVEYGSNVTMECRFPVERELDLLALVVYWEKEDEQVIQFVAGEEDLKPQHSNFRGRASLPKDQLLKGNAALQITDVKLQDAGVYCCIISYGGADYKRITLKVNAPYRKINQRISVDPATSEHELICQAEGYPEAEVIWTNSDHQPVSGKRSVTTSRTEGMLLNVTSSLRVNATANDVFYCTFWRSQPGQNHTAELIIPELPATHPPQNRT
Assay: as above
Experimental: as §2

| Kd [nM] | Binder |
| --- | --- |
| 9.72 | B10 |
| 10.7 | B11 |
| 408 | B24 |
| 9.82 | B12 |
| 9.7 | B13 |
| 9.76 | B14 |
| 146 | B15 |
| 10.4 | B16 |
| 21 | B17 |
| 9.59 | B18 |
| 154 | B19 |
| 19.5 | B20 |
| 197 | B21 |
| 143 | B25 |
| 9.97 | B22 |
| 122 | B23 |

Target: T3, human PD-L1 protein (ACRO, PD1-H5258)
Assay: as above
Remark: another data set of the same source
Experimental: (§3) The anti-[…] antibody was bound to the HC30M chip via amino coupling, then […] of humanized PD-L1 single-domain antibody was captured. After the baseline was stabilized, gradient diluted human PD-L1 protein (ACRO, PD1-H5258) and monkey PD-L1 protein (Kactus Biosystems, PDL-CM210) (starting from 100 nM, gradient dilution) were flowed over the chip from low to high concentrations, with a binding time of 8 minutes and a dissociation time of 20 minutes. Kinetic constants were obtained by fitting with Carteria software.

| Kd [nM] | Binder |
| --- | --- |
| 0.0294 | B26 |
| 0.0362 | B27 |
| 0.0815 | B28 |
| 0.0382 | B29 |
| 0.0372 | B30 |

Target: T4, monkey PD-L1 protein (Kactus …)
Assay: as above
Remark: another data set of the same source
Experimental: as §3

| Kd [nM] | Binder |
| --- | --- |
| 0.0252 | B26 |
| 0.0307 | B27 |
| 0.0588 | B28 |
| 0.0347 | B29 |
| 0.0294 | B30 |
